From patent publication US20170145086A1 (VISTERRA, published 2017)
Where “and” joins values, the source holds several entries; their conditions need not be identical. Equal entries are not always repeated.

T1: HA-GCN4 hAPRIL (amino acid residues 105-250) (human, UniProt O75888 105-250)
T1 construct: Bought (R&D Systems); also called HA-tagged GCN4 human APRIL; HA-GCN4-huAPRIL; not shown: N-terminal HA tag; GCN4 isoleucine zipper oligomerization domain
T1 sequence: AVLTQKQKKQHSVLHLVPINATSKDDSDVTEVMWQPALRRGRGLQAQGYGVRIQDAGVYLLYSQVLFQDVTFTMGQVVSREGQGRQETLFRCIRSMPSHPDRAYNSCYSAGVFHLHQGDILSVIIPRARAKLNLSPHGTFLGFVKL

T2: HA-GCN4 mAPRIL (amino acid residues 96-241) (mouse, UniProt Q9D777 96-241, Assembles as a homotrimer through the GCN4 zipper; one protomer is given.)
T2 construct: Bought (R&D Systems); also called HA-tagged mouse APRIL (R&D Systems); recombinant mouse APRIL; not shown: N-terminal HA tag and GCN4 isoleucine-zipper trimerisation domain, with any linker, of the bought R&D Systems protein
T2 sequence: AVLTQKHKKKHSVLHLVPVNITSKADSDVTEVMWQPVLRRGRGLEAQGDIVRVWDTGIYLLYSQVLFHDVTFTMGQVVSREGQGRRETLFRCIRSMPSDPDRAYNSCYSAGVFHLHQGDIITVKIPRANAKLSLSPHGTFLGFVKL


Legend:
[1] = molecular target: T1, HA-GCN4 hAPRIL (amino acid residues …); experiment: indirect ELISA on coated HA-GCN4 human APRIL; EC50 from non-linear regression
Text: (§1) Purified antibodies were further characterized for APRIL binding, APRIL species cross reactivity (human APRIL vs. mouse APRIL), and receptor blocking activity using TACI-Fc. For binding, an APRIL-based indirect ELISA was used to determine by first approximation the relative affinity of purified anti-APRIL antibodies to either human APRIL or mouse APRIL. ELISA method was as generally described above. […] Blocking and wash steps were completed as described. Binding of anti-APRIL antibodies to APRIL was quantified using an 8 point dilution of test antibody that spanned over a four log scale. Antibody binding to APRIL was detected using a rabbit anti-mouse IgG (H+L)-HRP conjugate (Jackson ImmunoResearch Laboratories). Antibody binding data was analyzed by non-linear regression analysis using a 3 parameter fit to determine max binding and apparent EC₅₀ values. […] Mouse specific antibody Apry-1-1 (Adipogen) was likewise used for quantification of antibody binding to mouse APRIL.

[2] = molecular target: T1, HA-GCN4 hAPRIL (amino acid residues …); experiment: blocking ELISA; blocked: human APRIL binding to human TACI-Fc; parameters: concentration or dose not given beside the values
Description: (§2) Recombinant TACI-Fc or BCMA-Fc was coated on 96 well plates in 0.1 M carbonate-bicarbonate buffer (pH 9.6), overnight at 4° C. Plates were washed three times with 1×PBST (PBS+0.025% Tween 20) followed by blocking with 1% BSA in 1×PBS, 37° C. for 1 hour. All subsequent wash steps were carried out with 1×PBST. To assess antibody blocking, either 15 ng/mL or 50 ng/mL HA-GCN4-huAPRIL was preincubated with varying antibody concentrations ranging from 0.03-30 μg/mL in binding buffer comprised of 1% BSA and 0.025% Tween-20 in 1×PBS. Preincubation was carried out at 30° C. for 1 hour with mixing. Antibody-APRIL premix with 50 ng/mL APRIL or 15 ng/mL APRIL was then added to TACI-Fc coated or BCMA-Fc coated plates, respectively, and incubated for an additional hour at 30° C. HA-tagged APRIL binding to either receptor was quantified using a goat polyclonal anti-HA tag-HRP antibody (Abcam) added at a 1:10000 dilution followed by colorimetric development using 100 μl/well of freshly prepared TMB substrate (KPL) carried out for up to 30 minutes at room temperature before quenching enzymatic reaction by the addition of 1N sulfuric acid. ELISA signal was quantified by absorbance at 450 nm. ELISA data was analyzed by non-linear regression. IC₅₀ values were calculated based on a 4 parameter fit of antibody titration curves. […] Non-blocking antibodies Aprly-1 or Aprly-5 (Enzo Biosciences) were used as negative controls. Mouse specific, blocking antibody aprily-1-1 (Adipogen) was generally used as a positive control in experiments using mouse APRIL (HA-GCN4-mAPRIL).

[3] = molecular target: T1, HA-GCN4 hAPRIL (amino acid residues …); experiment: indirect ELISA on HA-GCN4 human APRIL, 3-parameter fit
Description: FIG. 5 depicts the binding of anti-APRIL antibodies to human APRIL. Relative binding of select anti-APRIL antibodies was measured by indirect ELISA. Select antibodies based on prior hybridoma screening were recombinantly produced (based on immunoglubin VH and VL gene sequencing) as described. HA-tagged GCN4 human APRIL R&D Systems was used as source of APRIL. Binding data was analyzed by non-linear regression using a three parameter fit.
as §1

[4] = molecular target: T1, HA-GCN4 hAPRIL (amino acid residues …); experiment: blocking ELISA; blocked: human APRIL binding to human BCMA-Fc; parameters: concentration or dose not given beside the values
Description: as §2

[5] = molecular target: T1, HA-GCN4 hAPRIL (amino acid residues …); experiment: blocking ELISA, 4-parameter fit; blocked: human APRIL binding to human TACI-Fc
Description: as §2

[6] = molecular target: T1, HA-GCN4 hAPRIL (amino acid residues …); experiment: competition ELISA: antibody titrated against human APRIL, read-out APRIL bound to coated human TACI-Fc
Description: Mouse specific antibody Apry-1-1 (Adipogen) was likewise used for quantification of antibody binding to mouse APRIL.
Recombinant TACI-Fc or BCMA-Fc was coated on 96 well plates in 0.1 M carbonate-bicarbonate buffer (pH 9.6), overnight at 4° C. Plates were washed three times with 1×PBST (PBS+0.025% Tween 20) followed by blocking with 1% BSA in 1×PBS, 37° C. for 1 hour. All subsequent wash steps were carried out with 1×PBST. To assess antibody blocking, either 15 ng/mL or 50 ng/mL HA-GCN4-huAPRIL was preincubated with varying antibody concentrations ranging from 0.03-30 μg/mL in binding buffer comprised of 1% BSA and 0.025% Tween-20 in 1×PBS. Preincubation was carried out at 30° C. for 1 hour with mixing. […] HA-tagged APRIL binding to either receptor was quantified using a goat polyclonal anti-HA tag-HRP antibody (Abcam) added at a 1:10000 dilution followed by colorimetric development using 100 μl/well of freshly prepared TMB substrate (KPL) carried out for up to 30 minutes at room temperature before quenching enzymatic reaction by the addition of 1N sulfuric acid. ELISA signal was quantified by absorbance at 450 nm. ELISA data was analyzed by non-linear regression. IC₅₀ values were calculated based on a 4 parameter fit of antibody titration curves. […]

[7] = molecular target: T1, HA-GCN4 hAPRIL (amino acid residues …); experiment: blocking ELISA, 4-parameter fit; blocked: human APRIL binding to human BCMA-Fc
Description: as §2

[8] = molecular target: T1, HA-GCN4 hAPRIL (amino acid residues …); experiment: cell-based or functional assay
[9] = molecular target: T1, HA-GCN4 hAPRIL (amino acid residues …); experiment: blocking ELISA; blocked: human APRIL binding to BCMA-Fc
Description: as §2
Assay is based on receptor blocking ELISA using recombinant human APRIL (R&D Systems) and either human TACI-Fc (FIG. 30A) or BCMA-Fc (FIG. 30B).

[10] = molecular target: T1, HA-GCN4 hAPRIL (amino acid residues …); experiment: blocking ELISA; blocked: human APRIL binding to TACI-Fc
[11] = molecular target: T1, HA-GCN4 hAPRIL (amino acid residues …); experiment: indirect ELISA on human APRIL
[12] = molecular target: T1, HA-GCN4 hAPRIL (amino acid residues …); experiment: ELISA on trimeric (GCN4-stabilised) human APRIL
Text: APRIL trimer was stabilized by the N-terminal fusion of APRIL with an isoleucine zipper (GCN4) oligomerization domain Binding of APRIL to human TACI-Fc is shown for comparative purposes.

[13] = molecular target: T2, HA-GCN4 mAPRIL (amino acid residues …); experiment: blocking ELISA; blocked: mouse APRIL binding to human BCMA-Fc
Description: Recombinant TACI-Fc or BCMA-Fc was coated on 96 well plates in 0.1 M carbonate-bicarbonate buffer (pH 9.6), overnight at 4° C. Plates were washed three times with 1×PBST (PBS+0.025% Tween 20) followed by blocking with 1% BSA in 1×PBS, 37° C. for 1 hour. All subsequent wash steps were carried out with 1×PBST. To assess antibody blocking, either 15 ng/mL or 50 ng/mL HA-GCN4-huAPRIL was preincubated with varying antibody concentrations ranging from 0.03-30 μg/mL in binding buffer comprised of 1% BSA and 0.025% Tween-20 in 1×PBS. Preincubation was carried out at 30° C. for 1 hour with mixing. Antibody-APRIL premix with 50 ng/mL APRIL or 15 ng/mL APRIL was then added to TACI-Fc coated or BCMA-Fc coated plates, respectively, and incubated for an additional hour at 30° C. HA-tagged APRIL binding to either receptor was quantified using a goat polyclonal anti-HA tag-HRP antibody (Abcam) added at a 1:10000 dilution followed by colorimetric development using 100 μl/well of freshly prepared TMB substrate (KPL) carried out for up to 30 minutes at room temperature before quenching enzymatic reaction by the addition of 1N sulfuric acid. ELISA signal was quantified by absorbance at 450 nm. ELISA data was analyzed by non-linear regression. IC₅₀ values were calculated based on a 4 parameter fit of antibody titration curves. […]

EC50 [1] [nM] | % Inhibition [2] [%] | EC50 [3] | % Inhibition [4] [%] | IC50 [5] [nM] | IC50 [6] [nM] | IC50 [7] [nM] | IC50 (inhibition of APRIL-mediated BCMA NFκB signaling) [8] [nM] | IC50 (inhibition of APRIL-mediated TACI NFκB signaling) [8] [nM] | IC50 [9] [nM] | Relative Activity (normalised to 2419) [9] | IC50 [10] [nM] | Relative Activity (normalised to 2419) [10] | EC50 [11] [nM] | EC50 [12] [nM] | IC50 (read off the curve) [13] [µg/mL] | Binder
< 0.2 | 79 | 0.0143 µg/mL and 0.097 nM | 0 | 1 |  |  |  |  |  |  |  |  |  |  |  | monoclonal antibody 2621 (antibody, mouse IgG2, V domains shown) VH: EVQLQQSGAELVRPGSSVKMSCKTSGYTFTSYGINWVKQRPGQGLEWIGYIYIGNGYAEYNERFKGKATLTSDTSSSTAYMQLSSLTSEDSAIYFCALYYPWFTYWGQGTLVTVSA VL: DIQMTQSPASLSASVGDSVTITCRASENIYSYLAWYQQKQGKSPQLLVYNAKTLAEGVPSRFSGSGSGTQFSLKINSLQPEDFGNYYCQHHYDTPFTFGGGTKLEIK
 | 97 | 0.0713 µg/mL and 0.482 nM | 97 | 31.6 | > 10 | 22 |  |  |  |  |  |  |  |  |  | monoclonal antibody 2922 (antibody, mouse IgG2, V domains shown) VH: QVQLHQSGPELVKPGASVKLSCKTSGYTFTSYDVFWVKQRPGQGLEWIGWIYPRDSSTKYNEKFKGKATLTVDTSSSTAYMELHSLTSEDSAVYFCAKEGYDYDKRGFDYWGQGTTLTVSS VL: DIVLTQSPASLAVSLGQRAIISCKASQSVSFAGTNLMHWYQQRPGQQPKLLIYRASNLEPGVPTRFSGSGSRTDFTLNIHPVEEDDAATYYCQQSREYPWTFGGGTKLEIK
 |  |  |  |  |  |  | ~0.38 | ~1.02 | 0.1 | 0.41 | 0.26 | 0.93 | 0.00128 | 0.0135 |  | monoclonal antibody 4035-062 (antibody, IgG1, V domains shown) VH: QVQLQESGPGLVKPSETLSLTCTVSGFSLTIYDVHWVRQPPGKGLEWIGVIWSDGSTDYNPSLKSRVTISKDTSKNQVSLKLSSVTAADTAVYYCARNWVDQAWFAYWGQGTLVTVSS VL: DIQMTQSPSSLSASVGDRVTITCRASKNIYSYLAWYQQKPGKAPKLLVYNAKTLPEGVPSRFSGSGSGTDFTLTISSLQPEDFATYYCQHHYGTPLTFGQGTKLEIK
> 1 | 52 | 0.281 µg/mL and 1.9 nM | < 10 | 113 | > 10 |  |  |  |  |  |  |  |  |  |  | monoclonal antibody 3125 (antibody, mouse IgG2, V domains shown) VH: QVQLQQSGAELVRPGASVTLSCKASGYTFTDYEMHWVKQTPVHGLEWIGAIDPETGGTAYNQRFKGKAILTTDKSSITAYMELRSLTSEDSAVYYCTRWNDGDYWGQGTTLTVSS VL: DVVMTQTPLSLSVTIGQPASISCKSSQSLLYSNGKTYLNWFQQRPGQSPKRLMYQVSKLDPGIPDRFSGSGSETDFTLKISRVEAEDLGLYYCLQGTYYPYTFGGGTKLEIK
 | 86 | 0.0534 µg/mL and 0.361 nM | 48 | 4.05 |  | 0.85 |  |  |  |  |  |  |  |  | ~0.3 | monoclonal antibody 3525 (antibody, mouse IgG2, V domains shown) VH: QVQLQQSGAELVRPGASVKLSCKASGYTFTDHEMHWVRQTPVHGLEWIGVIDPDTGDTTYNQKFKGKATLTADKSSSTAYMDLRSLTSEDSAVFYCTRWTGGDYWGHGTTLTVSS VL: DVVMTQTPLSLSVTIGQPASISCKSSQSLLYSNGKTYLNWFQQRPGQSPKRLMYQVSKLDPGIPDRFSGSGSETDFTLKISRVEAEDLGLYYCLQGTYYPYTFGGGTKLEIK
 |  |  |  |  |  |  |  |  | 0.11 | 0.47 | 0.24 | 0.88 | 0.00334 | 0.0384 |  | monoclonal antibody 2419-1406 (antibody, V domains shown) VH: QVQLVQSGAEVKKPGASVKVSCKASGYTFTDYTIHWVRQATGQGLEWMGWIYPLRGSINYAQKFQGRVTMTADKSISTVYMELSSLRSEDTAVYFCARHGAYYSNAFDYWGQGTLVTVSS VL: EIVMTQSPATLSVSPGERATLSCRASESVDNDGIRFLHWYQQKPGQAPRLLIYRASTRATGIPARFSGSGSRTEFTLTISSLQSEDFAVYYCQQSNKDPYTFGGGTKVEIK
